Biological target: GST-SEB-1 (Neurospora crassa, UniProt Q7SH58 1-575)
Experiment: competition
Details: protein: recombinant; tags: N-terminal GST (pGEX-4T1); blunt

B1: STRE1 oligonucleotide (18 bp) (dsDNA)
DNA 1: GGGATCCCCCTTGAATAC
DNA 2: GTATTCAAGGGGGATCCC
- binding result: binds

— paper PMC4856084, “The SEB-1 Transcription Factor Binds to the STRE Motif in Neurospora crassa and Regulates a Variety of Cellular Processes Including the Stress Response and Reserve Carbohydrate Metabolism”
